One data set addresses T1, PSFMO (Stutzerimonas stutzeri, UniProt M2V3J0).
T1 construct: gene B381_09411; 358 aa; codon-optimised gene in pET-YSBL-LIC-3C, N-terminal 3C-cleavable His6 tag (crystals: tag cleaved, linker Gly-2 Pro-1 Ala0 seen), E. coli BL21(DE3)
T1 sequence (M2V3J0 1-358): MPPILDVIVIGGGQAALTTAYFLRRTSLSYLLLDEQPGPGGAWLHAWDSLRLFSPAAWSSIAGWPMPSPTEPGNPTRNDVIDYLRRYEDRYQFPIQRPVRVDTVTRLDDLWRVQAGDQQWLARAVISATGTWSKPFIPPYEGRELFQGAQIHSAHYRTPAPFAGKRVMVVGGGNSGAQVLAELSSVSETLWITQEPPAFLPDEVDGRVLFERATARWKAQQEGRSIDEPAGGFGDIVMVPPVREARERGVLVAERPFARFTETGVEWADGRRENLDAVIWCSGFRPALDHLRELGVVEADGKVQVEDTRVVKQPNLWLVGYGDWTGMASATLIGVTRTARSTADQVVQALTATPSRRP
Put plainly: X-ray crystal structure, […] Å. The format is binding. To be noted: oxidised FAD; co-purified; tag-cleaved protein.

For another data set, the target named is T2, CFMO (Cellvibrio sp. BR, UniProt I3IEE4).
T2 construct: gene O59_000450; 361 aa; codon-optimised gene in pET-YSBL-LIC-3C, N-terminal 3C-cleavable His6 tag (crystals: non-cleaved protein), E. coli BL21(DE3); dimer
T2 sequence (I3IEE4 1-361): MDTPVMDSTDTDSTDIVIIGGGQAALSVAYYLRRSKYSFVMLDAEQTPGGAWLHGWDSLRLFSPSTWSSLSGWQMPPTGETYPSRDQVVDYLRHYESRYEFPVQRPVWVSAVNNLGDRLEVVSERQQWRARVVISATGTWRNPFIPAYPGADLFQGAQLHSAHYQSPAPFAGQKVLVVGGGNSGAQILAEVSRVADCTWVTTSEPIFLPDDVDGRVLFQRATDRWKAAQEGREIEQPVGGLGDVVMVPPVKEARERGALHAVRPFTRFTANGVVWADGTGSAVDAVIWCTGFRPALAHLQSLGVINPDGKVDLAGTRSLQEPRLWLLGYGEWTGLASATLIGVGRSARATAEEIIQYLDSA
Description: X-ray crystal structure, […] Å. Format: binding. To be noted: oxidised FAD at domain interface; co-purified; non-cleaved His-tagged protein.

Substrate in data set [1]: NC(=O)C1=CN([C@@H]2O[C@H](COP(=O)(O)OP(=O)(O)OC[C@H]3O[C@@H](n4cnc5c(N)ncnc54)[C@H](OP(=O)(O)O)[C@@H]3O)[C@@H](O)[C@H]2O)C=CC1
Description: purified protein. The format is biochemical, Cellvibrio sp. BR. To be noted: Tris-HCl pH 7.5, 3.9 nmol enzyme in 1 mL, NADPH 10-100 μM.

Substrate in data set [2]: NC(=O)C1=CN([C@@H]2O[C@H](COP(=O)(O)OP(=O)(O)OC[C@H]3O[C@@H](n4cnc5c(N)ncnc54)[C@H](O)[C@@H]3O)[C@@H](O)[C@H]2O)C=CC1
Description: purified protein. Format: biochemical, Cellvibrio sp. BR. The settings on record: Tris-HCl pH 7.5, 3.9 nmol enzyme in 1 mL, NADH 10-100 μM.

Substrate in data set [3]: NC(=O)C1=CN([C@@H]2O[C@H](COP(=O)(O)OP(=O)(O)OC[C@H]3O[C@@H](n4cnc5c(N)ncnc54)[C@H](OP(=O)(O)O)[C@@H]3O)[C@@H](O)[C@H]2O)C=CC1
Description: purified protein. To be noted: Tris-HCl pH 7.5, 3.9 nmol enzyme in 1 mL, NADPH 10-100 μM. Format: biochemical, Stutzerimonas stutzeri.

Substrate in data set [4]: NC(=O)C1=CN([C@@H]2O[C@H](COP(=O)(O)OP(=O)(O)OC[C@H]3O[C@@H](n4cnc5c(N)ncnc54)[C@H](O)[C@@H]3O)[C@@H](O)[C@H]2O)C=CC1
Description: purified protein. The format is biochemical, Stutzerimonas stutzeri. To be noted: Tris-HCl pH 7.5, 3.9 nmol enzyme in 1 mL, NADH 10-100 μM.

Data set [5] deals with the molecule itself. Description: SEC; size-exclusion studies of PSFMO (not shown).

For `Cc1cc2nc3c(=O)[nH]c(=O)nc-3n(C[C@H](O)[C@H](O)[C@H](O)COP(=O)(O)OP(=O)(O)OC[C@H]3O[C@@H](n4cnc5c(N)ncnc54)[C@H](O)[C@@H]3O)c2cc1C` [FAD], on PSFMO, the “X-ray crystal structure, 1.83 Å” value was “FAD was again clearly visible in the omit map after building and refinement”. Besides, the “X-ray crystal structure, 2.39 Å” value at CFMO is “This was successfully modelled and refined as FAD in the flat, oxidised form”.

B1: CFMO (Cellvibrio sp. BR) (protein)
chain: MDTPVMDSTDTDSTDIVIIGGGQAALSVAYYLRRSKYSFVMLDAEQTPGGAWLHGWDSLRLFSPSTWSSLSGWQMPPTGETYPSRDQVVDYLRHYESRYEFPVQRPVWVSAVNNLGDRLEVVSERQQWRARVVISATGTWRNPFIPAYPGADLFQGAQLHSAHYQSPAPFAGQKVLVVGGGNSGAQILAEVSRVADCTWVTTSEPIFLPDDVDGRVLFQRATDRWKAAQEGREIEQPVGGLGDVVMVPPVKEARERGALHAVRPFTRFTANGVVWADGTGSAVDAVIWCTGFRPALAHLQSLGVINPDGKVDLAGTRSLQEPRLWLLGYGEWTGLASATLIGVGRSARATAEEIIQYLDSA
notes: 361 aa; codon-optimised gene in pET-YSBL-LIC-3C, N-terminal 3C-cleavable His6 tag (crystals: non-cleaved protein), E. coli BL21(DE3); dimer
B1: in “purified protein [1]”, the Michaelis-Menten constant (Km) stood at 5 ± 1 µM, the catalytic constant (kcat) was determined as 0.02 s⁻¹ and the kcat/Km came to 4000 M⁻¹ s⁻¹. Moreover, in “purified protein [2]”, the Michaelis-Menten constant (Km) came to 3 ± 1 µM, the kcat was found to be 0.02 s⁻¹ and the kcat/Km came to 6670 M⁻¹ s⁻¹.

B2: Flavin-containing monooxygenase from Pseudomonas stutzeri NF13 (PSFMO), as used in size-exclusion studies (enzyme, UniProt M2V3J0 1-358, looked up)
chain: MPPILDVIVIGGGQAALTTAYFLRRTSLSYLLLDEQPGPGGAWLHAWDSLRLFSPAAWSSIAGWPMPSPTEPGNPTRNDVIDYLRRYEDRYQFPIQRPVRVDTVTRLDDLWRVQAGDQQWLARAVISATGTWSKPFIPPYEGRELFQGAQIHSAHYRTPAPFAGKRVMVVGGGNSGAQVLAELSSVSETLWITQEPPAFLPDEVDGRVLFERATARWKAQQEGRSIDEPAGGFGDIVMVPPVREARERGVLVAERPFARFTETGVEWADGRRENLDAVIWCSGFRPALDHLRELGVVEADGKVQVEDTRVVKQPNLWLVGYGDWTGMASATLIGVTRTARSTADQVVQALTATPSRRP
notes: PSFMO, putative FMO from Pseudomonas stutzeri NF13, Uniprot M2V3J0, 358 amino acids; synthetic gene amplified with primers from the ATG start codon to the stop codon; Same construct as m2
On to B2, for which, in the data set “purified protein [3]”, the Km amounted to 17 ± 2.0 µM, the kcat was 0.04 s⁻¹ and the catalytic efficiency (kcat/Km) is 2350 M⁻¹ s⁻¹. In “purified protein [4]”, the Km came to 16 ± 2 µM, the catalytic constant (kcat) was found to be 0.03 s⁻¹ and the kcat/Km was determined as 1880 M⁻¹ s⁻¹. Also, in data set [5], the “stoichiometry N” value is 2.

As usually defined, the Km is the substrate concentration at which the rate is half of its maximum. One may read the kcat as the maximal rate divided by the concentration of active sites. As usually defined, the kcat/Km is the second-order rate constant that governs catalysis at low substrate concentration. What is called stoichiometry N is the number of molecules, sites or subunits per partner or assembly.

Source of the values: publication PMC4220118, “Exploring nicotinamide cofactor promiscuity in NAD(P)H-dependent flavin containing monooxygenases (FMOs) using natural variation within the phosphate binding loop. Structure and activity of FMOs from Cellvibrio sp. BR and Pseudomonas stutzeri NF13” (Journal of Molecular Catalysis. B, Enzymatic, 2014).
